Here are results for two substances from patent US20040120954A1, “Regulation of mt1-mmp activity” (priority 2000, published 2004).

Test [1] deals with T1, MT1-MMP (Homo sapiens, UniProt P50281).
T1 construct: expressed in transfected cells
The test can be described thus: Activation of proMMP-2 by MT1-MMP on the cell surface of transfected cells (gelatin zymography). In kind it is cell-based. Here is the method:
(§1) Gelatin zymography was conducted using an SDS-polyacrylamide gel (PAGE) containing gelatin (0.8 mg/ml) (Itoh, Y. et al., J. Biol. Chem., 273: 24360-24367, 1998). The samples were mixed with a SDS-PAGE loading buffer without a reducing agent and subjected to electrophoretic analysis at room temperature. Enzyme activity was visualized as a negative staining area with Coomassie Brilliant Blue R-250.
(§2) The expression construct for FLAG epitope ([…]-tagged MT1-MMP (MT1-F) described in Itoh, Y. et al., J. Biol. Chem., 274: 34260-34266, 1999 was used as a template to generate cDNA for MT1Cat-F (A Ile^318-Gly^535) by the PCR extension method of Ho et al., (Ho, S. N. et al., Gene, 77: 51-59, 1989). The cDNA was subcloned into pSG5 (Stratagene, CA, USA). The PCR-generated fragments were confirmed by DNA sequencing. COS1 cells were transfected with the expression vector for MT1-MMP mutant; MT1-F or MT1Cat-F, or a vector alone (Mock). Expression vectors for each protein were transfected using FuGENE6™ (Roche Molecular Biochemicals) according to the manufacturer's instructions. COS1 cells were seeded in 6-well plates at 1.5×10^5/well at 16 hrs before the transfection was performed. The COS1 cells were maintained in a HAM F-12 medium or DMEM containing 10% fetal bovine serum in a humidified incubator at 37° C. At 48 hrs after the transfection, the cells were collected for use in the experiments. The cells were incubated in the presence of purified proMMP-2 in a serum-free medium (0.25 μg/ml) at 37° C. for 18 hrs. Cell lysates were tested for the expression of the mutants, while culture supernatants were tested for the activation of proMMP-2.
(§3) To investigate roles of dimer formation upon the activation of proMMP-2, MT1-F was introduced into COS1 cells together with MT1PEX-F. The co-introduced cells were reacted with exogenously added proMMP-2. Thus, COS1 cells were co-transfected with the MT1-F and MT1PEX-F at indicated DNA amount ratios. Next, purified proMMP-2 (0.25 μg/ml) in a serum-free medium was reacted with the resulting cells at 37° C. for 18 hrs. MMP-2 in the culture supernatant was analyzed by gelatin zymography, and the cell lysates were subjected to Western blotting analysis using a monoclonal anti-FLAG M2 antibody.
(§4) Next, to determine if MT1PEX-F affects the catalytic activity of MT1-MMP on the cell surface or not, tests for gelatin degrading activity and binding capacity to TIMP-2 were conducted using cells transfected in the same incubator. As shown in FIGS. 12 through 14, CHO-K1 cells were transfected with an expression vector for MT1-F, MT1-F/MT1PEX-F or MT1Cat-F, or a vector alone (Mock). The cells were then treated with trypsin, and separately seeded to: DQ™ gelatin-coated cover slips for testing the proteolytic activity (FIG. 13); and 24-well plates for TIMP-2 binding assay (FIG. 12) and for the activation of proMMP-2 (FIG. 14). Transfected cells on the DQ™ gelatin-coated cover slip as shown in FIG. 13 were incubated in a medium at 37° C. for 18 hrs, and the generated fluorescence was analyzed using confocal microscopy. Transfected cells on the 24-well plate as shown in FIG. 12 were incubated with 25 nM ^125I-labeled TIMP-2 in the presence or absence of BB-94 (50 μM) at 0° C. for 1 hr. MT1-MMP specific binding was calculated by subtracting the datum obtained in the presence of BB-94 (50 μM) from each datum derived from the corresponding experiments. […] DQ™ gelatin is a fluorescence-quenched gelatin, which fluoresces upon proteolytic cleavage. […]

The test system of test [2] is MT1-MMP. Described as above. Format: cell-based, human. To be noted: transfected COS1 cells, exogenous purified proMMP-2 (FIGS. 2, 20). Here is the method: as §1, §2, §3, §4

For the substance “MT1PEX-F: Catalytic domain-deleted FLAG-tagged MT1-MMP (Δ Tyr112-Pro312), expressed by transfection”, the “effect on the activation of proMMP-2” value in test [1] (CHO-K1 cells co-transfected with MT1-F and MT1PEX-F (FIG. 14)) was “completely inhibited the activation of proMMP-2”. The “effect on the activation of proMMP-2 by MT1-F” value in test [1] (COS1 cells co-transfected at indicated DNA ratios, proMMP-2 0.25 μg/ml, 37° C., 18 hrs (FIGS. 11 and 28)) was “inhibited the activation of proMMP-2 by MT1-F, in dependence upon the expression level”. As for “MT1Cat-F: PEX-deleted FLAG-tagged MT1-MMP (Δ Ile318-Gly535)”, the “activation of proMMP-2 by cells expressing the mutant” value in test [2] is given as “did not activate at all”.
